According to patent US20250236644A1, “De Novo Designed Stimulus-responsive Two-state Hinge Proteins” (University of Washington, priority 2024, published 2025):

Legend:
[1] = system: original peptides fused to superfolder green fluorescent protein (sfGFP); test: SEC binding experiments with original peptides fused to sfGFP; conditions: FIG. 17C
Experimental: (§1) Individual hinge and sfGFP-fused peptides or 3hb were diluted in 20 mM Tris pH 8, 100 mM NaCl and mixed at approximately 1:1 concentrations. 0.5-1 mL of the resulting samples were injected onto a Superdex™ 200 Increase 10/300 GL columns and the absorbance at 230 nm was used as a readout for binding. For sfGFP-fused peptides, 473 nm was also used as readout. Mixtures were at a total concentration of 2. μM or higher.

[2] = system: TAMRA-cs269B; test: FP titration and kinetics, hinge vs TAMRA-cs269B; format: binding; conditions: Effector TAMRA-cs269B; method FP
Experimental: (§2) All FP measurements were performed at 25° C. in 96-well plates (Corning 3686) using a Synergy Neo2™ plate reader and a 530/590 nm filter cube. The buffer for all FP measurements was 20 mM Tris-HCl, 100 mM NaCl, 0.05% v/v TWEEN20 at pH 8. Titrations were carried out in 96-well format, with 4 replicates per plate and 24 data points per titration (23 steps of two-fold serial dilution of hinges in the presence of TAMRA-labeled peptide at a constant concentration between 0.1 nM and 1 nM) with a final sample volume of 80 μl per well. Titration plates were incubated overnight at room temperature before measuring to ensure complete equilibration. The polarization signal S (as calculated by the Neo2™ software) was fitted to the equation
(§3) where fAB is the fraction of peptide that is bound, Atot is the absolute hinge concentration, Btot is the absolute peptide concentration, S0 is the baseline polarization of free peptide, and S1 is the change in polarization upon complex formation.
(§4) Fitting was performed using the scipy.optimize.curve_fit python function (53). Uncertainties for KD values are standard deviation errors calculated from the covariance matrix of the fits. In cases where the fitted KD was lower than the concentration of the labeled peptide Btot, we report the KD as KD<Btot. […]

[3] = system: cs074B; test: FRET titration and kinetics, labeled extended hinge vs peptide cs074B; format: binding; conditions: Effector cs074B; method FRET
Experimental: (§5) AlexaFluor™ 555 C2 maleimide (donor) and AlexaFluor™ 647 C2 maleimide (acceptor) were purchased from ThermoFisherScientific. Stock solutions at −5 mM were prepared by dissolving 1 mg of each dye in 200 μl DMSO. Hinge variants containing two cysteines were expressed and purified as described above with the modification that 0.5 mM TCEP was used during lysis, IMAC and SEC, and that the buffer for initial SEC contained 20 mM sodium phosphate (PH 7.0) instead of Tris-HCl. After SEC, 500 μl hinge at a concentration of 50 μM was incubated with 500 μM of a single dye for controls or 250 μM each of two dyes. […]
(§6) The buffer for all FRET measurements was 20 mM Tris-HCl, 100 mM NaCl, 0.05% v/v TWEEN®20 at pH 8. Fluorescence spectra were recorded at room temperature using a FluoroMax™ spectrometer in a 1 cm×1 cm cuvette at a sample volume of 3 ml. FRET titrations and kinetics measurements were performed at 25° C. in 96-well plates (Corning 3686) using a Synergy Neo2™ plate reader. […]
(§7) Titrations were carried out in 96-well format, with 4 replicates per plate and 24 data points per titration (23 steps of two-fold serial dilution of effector (peptide or 3hb) in the presence of double-labeled hinge at a constant concentration of 2 nM) with a final sample volume of 80 μl per well. […] The raw fluorescence signal (donor emission upon acceptor excitation) was fitted to the equation […]

[4] = system: 3hb05; test: FRET titration, labeled extended hinge vs 3hb05; format: binding
Experimental: as §5, §6, §7

[5] = system: cs221B; test: FRET titration and kinetics, labeled extended hinge vs peptide cs221B; format: binding
Experimental: as §5, §6, §7

[6] = system: cs201B; test: FRET titration and kinetics, labeled extended hinge vs peptide cs201B; format: binding
Experimental: (§8) AlexaFluor™ 555 C2 maleimide (donor) and AlexaFluor™ 647 C2 maleimide (acceptor) were purchased from ThermoFisherScientific. Stock solutions at −5 mM were prepared by dissolving 1 mg of each dye in 200 μl DMSO. Hinge variants containing two cysteines were expressed and purified as described above with the modification that 0.5 mM TCEP was used during lysis, IMAC and SEC, and that the buffer for initial SEC contained 20 mM sodium phosphate (PH 7.0) instead of Tris-HCl. After SEC, 500 μl hinge at a concentration of 50 μM was incubated with 500 μM of a single dye for controls or 250 μM each of two dyes. After 2 h incubation at room temperature, samples were purified by SEC using a buffer containing 20 mM Tris-HCl and 100 mM NaCl at pH 8.
(§9) The buffer for all FRET measurements was 20 mM Tris-HCl, 100 mM NaCl, 0.05% v/v TWEEN®20 at pH 8. Fluorescence spectra were recorded at room temperature using a FluoroMax™ spectrometer in a 1 cm×1 cm cuvette at a sample volume of 3 ml. FRET titrations and kinetics measurements were performed at 25° C. in 96-well plates (Corning 3686) using a Synergy Neo2™ plate reader. Excitation wavelength was 520 nm and emission wavelength was 665 nm (except for donor-donor controls for which emission wavelength was 555 nm, see FIG. 13B right column).
(§10) Titrations were carried out in 96-well format, with 4 replicates per plate and 24 data points per titration (23 steps of two-fold serial dilution of effector (peptide or 3hb) in the presence of double-labeled hinge at a constant concentration of 2 nM) with a final sample volume of 80 μl per well. […] The raw fluorescence signal (donor emission upon acceptor excitation) was fitted to the equation
(§11) Fitting was performed using the scipy.optimize.curve_fit python function (53). Uncertainties for KD values are standard deviation errors calculated from the covariance matrix of the fits. […]
(§12) For FRET kinetics experiments a 2× hinge solution and 8 different 2× effector solutions at different concentrations were prepared separately. […] Fluorescence signals S at each concentration were fitted individually to the equation […]

[7] = system: TAMRA-cs074B; test: Fluorescence polarization (FP) titration and kinetics, hinge vs TAMRA-cs074B; format: binding; conditions: Effector TAMRA-cs074B; method FP
Experimental: as §2, §3
Fitting was performed using the scipy.optimize.curve_fit python function (53). Uncertainties for KD values are standard deviation errors calculated from the covariance matrix of the fits. In cases where the fitted KD was lower than the concentration of the labeled peptide Btot, we report the KD as KD<Btot.
For FP kinetics experiments a 2× peptide solution and 8 different 2× hinge solutions at different concentrations were prepared separately. 40 μl of each hinge solution were mixed with 40 μl peptide solution using a multichannel pipet and the measurement was started immediately after mixing. Polarization signals S at each concentration were fitted individually to the equation
where S0 is the amplitude, S1 is the polarization at equilibrium, kapp is the apparent rate constant, t is the time after start of the measurement, and t0 is the dead time between mixing and start of the measurement. For each hinge-peptide pair, the apparent rate constants for 8 different concentrations are fitted to the equation
where koff and kon are observed off- and on rates and Atot is the absolute hinge concentration.

[8] = system: TAMRA-cs094B; test: FP titration and kinetics, hinge vs TAMRA-cs094B; format: binding; conditions: Effector TAMRA-cs094B; method FP
Experimental: as §2, §3, §4

[9] = system: off-target peptides; test: Pairwise FRET titrations of labeled hinges with off-target peptides; format: binding; conditions: 2 nM labeled hinge; off-target peptides at μM concentrations; flat lines
Experimental: A critical feature of two-state switches in biology and technology is the coupling between the state control mechanism and the populations of the two states. To quantitatively investigate the thermodynamics and kinetics of the effector induced switching between the two states of our designed hinges, we used Forster resonance energy transfer (FRET). […]
as §6, §10

[10] = system: three-helix bundles; test: SEC binding experiments with three-helix bundles; conditions: FIG. 16A
Experimental: as §1

[11] = system: 3hb21; test: FRET titration and kinetics, labeled extended hinge vs 3hb21; format: binding
Experimental: as §8, §9, §10, §11, §12

3hb21, sequence (as listed by the source): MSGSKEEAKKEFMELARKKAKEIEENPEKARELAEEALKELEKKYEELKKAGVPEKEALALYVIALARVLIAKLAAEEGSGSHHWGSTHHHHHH
cs201B, sequence (as listed by the source): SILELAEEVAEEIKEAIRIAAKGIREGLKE
TAMRA-cs074B, sequence (as listed by the source): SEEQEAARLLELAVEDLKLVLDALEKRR
cs221B, sequence (as listed by the source): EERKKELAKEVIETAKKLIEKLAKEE
TAMRA-cs269B, sequence (as listed by the source): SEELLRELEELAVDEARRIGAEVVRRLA
3hb05, sequence (as listed by the source): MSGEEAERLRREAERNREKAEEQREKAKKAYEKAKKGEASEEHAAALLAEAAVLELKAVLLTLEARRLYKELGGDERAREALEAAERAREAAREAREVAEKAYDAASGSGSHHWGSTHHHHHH
TAMRA-cs094B, sequence (as listed by the source): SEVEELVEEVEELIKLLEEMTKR

B1: cs269: designed hinge protein, SEQ ID NO:14 (protein)
chain: MSGDEERVRELAERASREAERAVRSGSEESLEEALRNVEELIRKSDSEEARVRVAEAAVRAAAEAAARSGTVEAAAVAVIFTARVLQIVSSSEEAVVRVLAAAAAAAARVAVELGTEEALETALRFVELLVRLADSDEARQRVLRSASESARRSAEESGSERAREVAERFRERIERNQGSGSHHWGSTHHHHHH
[1]
  SEC binding experiment with sfGFP-fused original peptide: higher-order peaks
[2]
  kon: 2500 M⁻¹ s⁻¹

B2: cs074F: extended hinge cs074 for FRET labeling, SEQ ID NO:29 (protein)
chain: DEEVQEAVERAEELREEAEELIKKARKTGDPELLRKALEALECAVRAVEEAIKRNPDNDEAVETAVRLARELKKVAEELQERAKKTGDPELLKLALRALKVAVRAVKLAIKSNPDNEEAVKTAVRLARELLKVAEELKERAEKTGDPRLLLLAAEAIAWAIEAVFLAAKASENTEGALEAARAAVKLAEVAKRIAKLLQRDAKKEGDPELLKLALRALELAVRAVELAIKENPDNDEAVETAVRLARELKKVAEELQERAKKTGDPELLKLALRALEVAVRAVELAIKSNPDNEEAVETAKRLAEELRKVAELLEERACETGDPELQELAKRAKEVADRARELAKKSNPNNGSHHHHHH
[3]
  kon: 170000 M⁻¹ s⁻¹
[4]
  affinity compared with the original peptide cs074B: similar
[5]; FRET titration, 2 nM labeled hinge, peptide cs221B
  off-target binding compared to the on-target interaction for cs074B: two orders of magnitude weaker
[6]; FRET titration, 2 nM labeled hinge, peptide cs201B
  off-target binding compared to the on-target interaction for cs074B: three orders of magnitude weaker
[7]
  kon: 100000 M⁻¹ s⁻¹

B3: cs094: designed hinge protein, SEQ ID NO:5 (protein)
chain: MSGDEEERLRQEVEKAEKELEKLAKQSTDEEVRKMVREVAKQLRRLAEEAIRQKDDEALRQATEVVKMVQEAVKVAQKTTDQKVILLLLAVALVAIKVAQLAIRSDDTEALRLARIVIRAVQLLVKLVQKTTDPEVRRTALRVAELLAKLAKEAIERNDEEALREASEVVKEVQELVKEAEKSTDEEEIRELLQRAEERIREAQERIREGSGSHHWGSTHHHHHH
[8]
  kon: 9400 M⁻¹ s⁻¹

B4: cs201F: extended hinge cs201 for FRET labeling, SEQ ID NO:30 (protein)
chain: MSGDEEVQEAVERAEELREEAEELIKKARKTGDPELLRKALEALEEAVRAVEEAICRNPDNDEAVETAVRLARELKKVAEELQERAKKTGDPELLKLALRALEVAVRAVELAIKSNPDNDEAVETAVRLARELKKVAEELQERAKKTGDPELLKLALRALEVAVRAVELAIKRNPDNEEAIKTALRLARELRKVAKELIERARKTGDAELLKKALEAARVAVEAVRLAAEYNKENAEKMAELLVELAELAREVADVLIELAEKTGDPELLKKALEVLEEAVEAVRLAIEYDPDHDEAVETAVRLARELKKVAEELQERAKKTGDPELLKLALRALEVAVRAVELAIKSNPDNEEAVETAKRLAEELRKVAELLEERAKETGDPCLQELAKRAKEVADRARELAKKSNPNNGSGSHHWGSTHHHHHH
[9]
  off-target FRET titration outcome: no conformational change
[6]; 30 nM FRET-labeled hinge, peptide added, then excess unlabeled hinge cs201
  reversibility of hinge conformational change: fully reversible
[6]; Effector cs201B, method FRET
  kon: 4500 M⁻¹ s⁻¹

B5: cs074: de novo designed two-state hinge protein, SEQ ID NO:4 (protein)
chain: MSGDEEVQEAVERAEELREEAEELIKKARKTGDPELLRKALEALKEAVRAVKEAIKRNPDNEEAVKTAVRLARELLKVAEELKERAEKTGDPRLLLLAAEAIAWAIEAVFLAAKASENTEGALEAARAAVKLAEVAKRIAKLLQRDAKKEGDPELLKLALRALELAVRAVELAIKENPDNEEAVETAKRLAEELRKVAELLEERAKETGDPELQELAKRAKEVADRARELAKKSNPNNGSGSHHWGSTHHHHHH
[10]
  SEC binding to three-helix bundles: clear binding
[7]
  kon: 64000 M⁻¹ s⁻¹

B6: cs221F: extended hinge cs221 for FRET labeling, SEQ ID NO:31 (protein)
chain: MSGEMVEEIEKLAEELAKKTKDCEVKKLAKKAAELAKKSTDEMKKEIVKDALELALRTKDEEVIRLALKAAVLAAESDDEEVKEVVKKALEAALKSKDEEVIRLLLLAAVLAAAAARSGSPEEKLEIAKKALELAMKSKDEEVIRLALLAAVLAARSDDEEVLKIVKKALELAMESKDVEVIRLALEAAVLAARSTDPEKKKCVYEALEKAMESKDEEEIKKELKAAVEKARSTEGSGSHHWGSTHHHHHH
[9]
  off-target FRET titration outcome: no conformational change
[5]; Effector cs221B, method FRET
  kon: 2600 M⁻¹ s⁻¹
[11]; Effector 3hb21, method FRET, 5 nM hinge
  kon: 13000 M⁻¹ s⁻¹
[11]; FRET
  binding compared with the original peptide cs221B: significantly tighter
[11]; FRET titration, 2 nM hinge
  KD, times stronger than the KD of the original peptide cs221B: at least 20 times
